Test results: patent US12215323B2, “Exogenous control of mammalian gene expression through aptamer-mediated modulation of polyadenylation” (Baylor College of Medicine, priority 2015, dated 2025)

Tests used:
hammerhead ribozyme = settings: retina of nude mice, toyocamycin drug pellet under dorsal skin, ribozyme-based sensor; cited from earlier work
[1] = system: luciferase reporter gene expression; assay: Luciferase reporter assay of tetracycline-aptamer polyA switch constructs with and without tc; format: cell-based, human
Excerpt: The general strategy for detecting and imaging proteins via modulation of polyA cleavage is critically dependent upon the highly efficient cleavage of the polyA signal at the 5′ UTR (FIG. 1). A first step was to test candidate polyA signals and associated upstream and downstream motifs that enable efficient polyA cleavage in cells. For testing polyA cleavage efficiency, a transient transfection assay involving a mammalian expression vector^49 was used with a GFP or luciferase reporter (merely as examples). Candidate polyA signal sequences were cloned at the 5′UTR of the reporter gene or transgene within the expression vector.

| Molecule | induced luciferase reporter expression (hammerhead ribozyme) | induction (fold), ratio of luciferase activity with and without Tc ([1]; 5 μg/mL Tc) [fold] | induction (fold), ratio of luciferase activity with and without Tc ([1]; 15 μg/mL Tc) [fold] |
| --- | --- | --- | --- |
| N#Cc1cn([C@@H]2O[C@H](CO)[C@@H](O)[C@H]2O)c2ncnc(N)c12 [toyocamycin] | up to 180 fold | – | – |
| D11A: GP2SLGP2 variant in stem/loop-II region; SEQ ID NO: 61 (nucleic acid, Synthetic Primer) GCTAGCGAATTGCACACACACAAATCTGGGGAGGTGAAGAATACGACCACCTGCGTTTTATACTTTGTTAAAACATACCATCCTAAGCCTAAGGCAAACGCTATGGTATGGATGGGGAGGTGAAGAATACGACCACCTAATAAAGTATAAAGTGCAAAACATACCAGATCTGTGTGTTGGTTTTTTGTGTGGAATTCCACACACACAAATCTGGGGAGGTGAAGAATACGACCACCTGCGTTTTATACTTTGTTAAAACATACCAGATCGAAAGATCTGGGGAGGTGAAGAATACGACCACCTAATAAAGTATAAAGTGCAAAACATACCAGATCTGTGTGTTGGTTTTTTGTGTGAACGGGGGAGGGGGAGGAAAGGGGGAGGGGGAGCGGCCGC | – | 84 | 127 |
| C12: GP2SLGP2 variant in stem/loop-II region, central stem equivalent length 20 bp; SEQ ID NO: 60 (nucleic acid, Synthetic Primer) CTGCAGCACACACACAAATCTGGGGAGGTGAAGAATACGACCACCTGCGTTTTATACTTTGTTAAAACATACCAGATCGAATTCGATCTGGGGAGGTGAAGAATACGACCACCTAATAAAGTATAAAGTGCAAAACATACCAGATCTGTGTGTTGGTTTTTTGTGTGGCTAGCCACACACACAAATCTGGGGAGGTGAAGAATACGACCACCTGCGTTTTATACTTTGTTAAAACATACCAGATCGAATTCGATCTGGGGAGGTGAAGAATACGACCACCTAATAAAGTATAAAGTGCAAAACATACCAGATCTGTGTGTTGGTTTTTTGTGTGAACGGGGGAGGGGGAGGAAAGGGGGAGGGGGAGCGGCCGC | – | 94 | 151 |
| GP2SLGP2: two GP2 aptamers connected back to back (Helper and Center); SEQ ID NO: 59 (nucleic acid, Synthetic Primerr) GCTAGCCACACACACAAATCTGGGGAGGTGAAGAATACGACCACCTGCGTTTTATACTTTGTTAAAACATACCAGATCGAAAGATCTGGGGAGGTGAAGAATACGACCACCTAATAAAGTATAAAGTGCAAAACATACCAGATCTGTGTGTTGGTTTTTTGTGTGGAATTCCACACACACAAATCTGGGGAGGTGAAGAATACGACCACCTGCGTTTTATACTTTGTTAAAACATACCAGATCGAAAGATCTGGGGAGGTGAAGAATACGACCACCTAATAAAGTATAAAGTGCAAAACATACCAGATCTGTGTGTTGGTTTTTTGTGTGAACGGGGGAGGGGGAGGAAAGGGGGAGGGGGAGCGGCCGC | – | 70 | 104 |
